Results published in article PMC8163975 (2021).
Like-named read-outs stand apart in the source and are kept apart here.

T1: RALA•mGppNHp (human, UniProt P11233 1-206)
T1 chain: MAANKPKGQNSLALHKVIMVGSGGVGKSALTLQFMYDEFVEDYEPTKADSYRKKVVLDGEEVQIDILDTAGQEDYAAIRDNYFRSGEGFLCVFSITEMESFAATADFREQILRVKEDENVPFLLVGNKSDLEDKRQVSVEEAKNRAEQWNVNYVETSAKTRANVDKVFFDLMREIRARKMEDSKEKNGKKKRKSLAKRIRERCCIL

T2: RAP1B•mGppNHp (human, UniProt P61224 1-184)
T2 chain: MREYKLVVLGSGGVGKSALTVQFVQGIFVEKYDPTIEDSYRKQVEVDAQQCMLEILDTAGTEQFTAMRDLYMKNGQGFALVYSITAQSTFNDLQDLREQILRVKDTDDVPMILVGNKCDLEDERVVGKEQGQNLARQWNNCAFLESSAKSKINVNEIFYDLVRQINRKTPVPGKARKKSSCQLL

T3: RAP2A•mGppNHp (human, UniProt P10114 1-183)
T3 chain: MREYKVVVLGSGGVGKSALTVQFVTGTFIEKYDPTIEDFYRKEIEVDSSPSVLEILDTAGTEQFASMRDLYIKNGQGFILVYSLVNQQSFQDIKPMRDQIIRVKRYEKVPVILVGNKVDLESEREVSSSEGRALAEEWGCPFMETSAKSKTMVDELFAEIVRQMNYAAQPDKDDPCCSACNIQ

T4: RRAS1•mGppNHp (human, UniProt P10301 1-218)
T4 chain: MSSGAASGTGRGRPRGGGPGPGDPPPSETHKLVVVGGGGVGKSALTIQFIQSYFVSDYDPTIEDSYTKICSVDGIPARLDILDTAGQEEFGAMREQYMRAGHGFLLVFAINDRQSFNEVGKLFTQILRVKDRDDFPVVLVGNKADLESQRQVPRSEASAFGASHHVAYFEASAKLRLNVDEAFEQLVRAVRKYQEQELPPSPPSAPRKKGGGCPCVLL


How the values were obtained:
Assay in all cases: FP
RALA•mGppNHp = molecular target: T1, RALA•mGppNHp
RIT1•mGppNHp [1] = molecular target: T5, RIT1•mGppNHp (human, UniProt Q92963 1-219)
T5 sequence (Q92963 whole entry): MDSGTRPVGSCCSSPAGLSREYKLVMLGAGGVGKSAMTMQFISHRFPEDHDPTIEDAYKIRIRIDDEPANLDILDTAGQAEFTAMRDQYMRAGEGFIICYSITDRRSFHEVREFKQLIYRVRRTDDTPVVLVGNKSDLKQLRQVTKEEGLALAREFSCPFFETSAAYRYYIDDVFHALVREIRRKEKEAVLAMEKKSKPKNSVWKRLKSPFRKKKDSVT

RAP1B•mGppNHp = molecular target: T2, RAP1B•mGppNHp
RAP2A•mGppNHp = molecular target: T3, RAP2A•mGppNHp
RHEB1•mGppNHp = RHEB1•mGppNHp (human, UniProt Q15382 1-184)
Chain of RHEB1•mGppNHp (Q15382 whole entry): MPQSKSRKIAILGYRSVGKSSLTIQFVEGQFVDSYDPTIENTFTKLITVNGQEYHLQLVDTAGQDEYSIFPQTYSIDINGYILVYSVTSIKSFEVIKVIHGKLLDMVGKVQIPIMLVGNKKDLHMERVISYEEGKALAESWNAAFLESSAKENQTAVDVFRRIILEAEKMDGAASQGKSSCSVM

RRAS1•mGppNHp = molecular target: T4, RRAS1•mGppNHp
RIT1•mGppNHp [2] = molecular target: T5, RIT1•mGppNHp; remark: listed apart in the source
HRAS•mGppNHp = HRAS•mGppNHp (human, UniProt P01112 1-189)

| Binder | Kd (RALA•mGppNHp) | Kd (RIT1•mGppNHp [1]) | Kd (RAP1B•mGppNHp) | Kd (RAP2A•mGppNHp) | Kd (RHEB1•mGppNHp) | Kd (RRAS1•mGppNHp) | Kd (RIT1•mGppNHp [2]) | Kd (HRAS•mGppNHp) |
| --- | --- | --- | --- | --- | --- | --- | --- | --- |
| RASSF1 RA domain, MBP fusion (domain or fragment) RGTSVRRRTSFYLPKDAVKHLHVLSRTRAREVIEALLRKFLVVDDPRKFALFERAERHGQVYLRKLLDDEQPLRLRLLAGPSDKALSFVLKENDS | 18 µM | 136 µM | 26 µM | 22 µM | 37 µM | 33 µM |  |  |
| RASSF4-to-5 variant (RASSF4 RA domain with RASSF5 hotspot residues), MBP fusion (domain or fragment) YNHKTSVFTPADGIKTLVRVNSTMTTLQVLTLLLNKFRVEDGPSEFALYIVHESGERTKLKDCEYPLISRILHGPCEKIARIFLMEADL |  |  |  |  |  |  | 170 µM | 10 µM |
